What was measured:
[1] = molecular target: Protein A (UniProt P38507); assay: SPR; Protein A (0.25 mg/mL, 90 min) adsorbed to the gold surface of a Topas chip, blocked with 1 mg/mL BSA; 500 uL of 0.565 mg/mL IgG1 added for 90 min, rinsed with 10 mM Tris-HCl; plateaus in 10 mM Tris-HCl compared; measured together with EIS in one PDMS flow cell
[2] = molecular target: Protein A (UniProt P38507); assay: electrochemical impedance spectroscopy (EIS); Protein A (0.25 mg/mL, 90 min) adsorbed to the gold surface of a Topas chip, blocked with 1 mg/mL BSA; 500 uL of 0.565 mg/mL IgG1 added for 90 min, rinsed with 10 mM Tris-HCl; impedance at 251 Hz, AC amplitude 10 mV; measured together with SPR in one PDMS flow cell

## immunoglobulin-G (IgG1) (antibody)
[1]
  local minimum (RU) after IgG1 and the last rinse: 460 RU
  minimum shift, normalised to the initial value: 35.3%
[2]
  impedance at 251 Hz after IgG1 and the last rinse: 51 kΩ
  increase in impedance, normalised to the initial value: 18.6%

— publication PMC3871058
